For this assay, the target named is CD26 on human monocyte-derived immature dendritic cells (human (endogenous in monocyte-derived iDCs)) (UniProt P27487).
Sequence of UniProt P27487 (P27487 whole entry): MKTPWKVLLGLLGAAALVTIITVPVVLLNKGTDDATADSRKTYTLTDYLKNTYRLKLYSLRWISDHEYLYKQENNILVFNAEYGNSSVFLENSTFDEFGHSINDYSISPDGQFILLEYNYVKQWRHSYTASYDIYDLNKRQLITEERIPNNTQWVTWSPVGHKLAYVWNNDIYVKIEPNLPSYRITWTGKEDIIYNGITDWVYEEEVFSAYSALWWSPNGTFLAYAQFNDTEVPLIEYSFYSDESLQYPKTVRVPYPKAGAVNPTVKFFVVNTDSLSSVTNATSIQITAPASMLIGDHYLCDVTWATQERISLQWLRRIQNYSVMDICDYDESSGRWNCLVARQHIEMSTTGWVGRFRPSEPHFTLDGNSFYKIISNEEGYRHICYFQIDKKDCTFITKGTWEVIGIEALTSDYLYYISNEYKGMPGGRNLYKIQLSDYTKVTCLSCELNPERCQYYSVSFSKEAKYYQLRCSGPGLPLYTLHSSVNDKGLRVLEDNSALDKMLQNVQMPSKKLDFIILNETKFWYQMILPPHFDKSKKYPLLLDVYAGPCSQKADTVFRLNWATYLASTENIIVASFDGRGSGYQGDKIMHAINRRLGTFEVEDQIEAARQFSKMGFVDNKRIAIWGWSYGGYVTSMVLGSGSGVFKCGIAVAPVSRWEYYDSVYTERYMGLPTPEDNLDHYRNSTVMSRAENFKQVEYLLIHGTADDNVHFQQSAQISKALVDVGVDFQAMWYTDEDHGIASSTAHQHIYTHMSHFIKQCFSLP

B1: Adenosine deaminase (ADA, EC 3.5.4.4) from calf intestine (enzyme)
chain: MAQTPAFNKPKVELHVHLDGAIKPETILYYGRKRGIALPADTPEELQNIIGMDKPLSLPEFLAKFDYYMPAIAGCREAVKRIAYEFVEMKAKDGVVYVEVRYSPHLLANSKVEPIPWNQAEGDLTPDEVVSLVNQGLQEGERDFGVKVRSILCCMRHQPSWSSEVVELCKKYREQTVVAIDLAGDETIEGSSLFPGHVKAYAEAVKSGVHRTVHAGEVGSANVVKEAVDTLKTERLGHGYHTLEDATLYNRLRQENMHFEVCPWSSYLTGAWKPDTEHPVVRFKNDQVNYSLNTDDPLIFKSTLDTDYQMTKNEMGFTEEEFKRLNINAAKSSFLPEDEKKELLDLLYKAYGMPSPASAEQCL
For B1, the ADA-mediated upregulation of CD80 on iDCs (flow cytometry, 48 h, 2 uM ADA) after pre-incubation of the cells with the anti-CD26 mAb TA5.9 (directed against the ADA-binding epitope on CD26) came to 0.64 in-fold and the ADA-mediated upregulation of CD83 on iDCs (flow cytometry, 48 h, 2 uM ADA) after pre-incubation of the cells with the anti-CD26 mAb TA5.9 (directed against the ADA-binding epitope on CD26) came out at 0.46 in-fold.

The record behind these values is paper PMC3519778.
